Data as given in article PMC4666396, “Mammalian splicing factor SF1 interacts with SURP domains of U2 snRNP-associated proteins” (Nucleic Acids Research, 2015).

Assays:
Test in all cases: pull-down; GST fusion proteins on glutathione-agarose; His6- or His6-MBP-tagged SF1 proteins in two-fold molar excess; NETN (20 mM Tris-HCl pH 8.0, 50 mM NaCl, 0.5% NP-40, 0.5 mM EDTA), 45 min 4°C; with or without RNase A; western blot with anti-His6
Settings in all cases: both partners purified
His6-SF1-C370 = molecular target: T1, His6-SF1-C370 (human, UniProt Q15637 1-370)
T1 construct: human SF1, amino acids 1–370, the region common to all SF1 isoforms; in pTrcHisA; source: E. coli XL1-Blue, purified (TALON resin, lysis in 8 M urea, dialyzed); not shown: His6, N-terminal, kept
T1 sequence (looked up): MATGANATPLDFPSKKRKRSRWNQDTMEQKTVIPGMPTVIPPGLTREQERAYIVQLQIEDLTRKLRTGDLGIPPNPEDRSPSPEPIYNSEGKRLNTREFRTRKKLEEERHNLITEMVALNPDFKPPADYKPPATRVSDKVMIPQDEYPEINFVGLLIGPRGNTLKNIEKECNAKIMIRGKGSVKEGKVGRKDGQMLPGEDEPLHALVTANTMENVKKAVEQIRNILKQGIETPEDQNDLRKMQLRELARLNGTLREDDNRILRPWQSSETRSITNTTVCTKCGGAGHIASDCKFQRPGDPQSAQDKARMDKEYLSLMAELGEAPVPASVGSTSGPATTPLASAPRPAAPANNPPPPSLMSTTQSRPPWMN

His6-SF1-C327 = molecular target: T2, His6-SF1-C327 (human, UniProt Q15637 1-327)
T2 construct: human SF1, C-terminal truncation to residue 327; SF1-C370 is 1–370; source: E. coli XL1-Blue, purified (TALON resin, lysis in 8 M urea, dialyzed); not shown: His6, N-terminal, kept
T2 sequence (looked up): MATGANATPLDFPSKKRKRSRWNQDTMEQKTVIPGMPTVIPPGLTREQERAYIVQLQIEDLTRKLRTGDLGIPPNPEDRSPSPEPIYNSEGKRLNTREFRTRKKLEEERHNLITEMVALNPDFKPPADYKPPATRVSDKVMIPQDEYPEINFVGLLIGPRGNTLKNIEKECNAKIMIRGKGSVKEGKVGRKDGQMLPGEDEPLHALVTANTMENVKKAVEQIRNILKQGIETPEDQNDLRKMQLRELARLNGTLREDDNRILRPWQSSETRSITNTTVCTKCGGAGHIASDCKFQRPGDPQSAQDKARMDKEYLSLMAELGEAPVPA

His6-SF1-C320 = molecular target: T3, His6-SF1-C320 (human, UniProt Q15637 1-320)
T3 construct: human SF1, C-terminal truncation to amino acid 320; it follows the naming of the other truncations; also called deletion to amino acid 320; source: E. coli XL1-Blue, purified (TALON resin, lysis in 8 M urea, dialyzed); not shown: His6, N-terminal, kept
T3 sequence (looked up): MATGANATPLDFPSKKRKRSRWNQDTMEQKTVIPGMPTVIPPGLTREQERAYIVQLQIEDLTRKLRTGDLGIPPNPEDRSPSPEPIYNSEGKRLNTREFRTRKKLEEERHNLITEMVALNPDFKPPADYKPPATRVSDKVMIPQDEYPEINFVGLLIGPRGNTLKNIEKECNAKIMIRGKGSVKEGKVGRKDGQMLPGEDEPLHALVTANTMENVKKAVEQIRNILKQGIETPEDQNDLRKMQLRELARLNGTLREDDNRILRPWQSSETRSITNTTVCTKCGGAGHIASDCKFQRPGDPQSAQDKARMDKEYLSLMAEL

His6-SF1-C315 = molecular target: T4, His6-SF1-C315 (human, UniProt Q15637 1-315)
T4 construct: source: E. coli XL1-Blue, purified (TALON resin, lysis in 8 M urea, dialyzed); not shown: His6, N-terminal, kept
T4 sequence (looked up): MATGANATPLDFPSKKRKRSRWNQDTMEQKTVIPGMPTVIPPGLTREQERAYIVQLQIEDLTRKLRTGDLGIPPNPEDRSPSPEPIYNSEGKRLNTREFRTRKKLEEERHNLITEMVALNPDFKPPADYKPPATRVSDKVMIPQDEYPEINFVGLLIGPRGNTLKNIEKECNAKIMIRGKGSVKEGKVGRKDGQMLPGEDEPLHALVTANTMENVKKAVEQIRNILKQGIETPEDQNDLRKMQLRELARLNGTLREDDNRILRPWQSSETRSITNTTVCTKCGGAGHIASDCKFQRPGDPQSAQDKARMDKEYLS

His6-SF1-C302 = molecular target: T5, His6-SF1-C302 (human, UniProt Q15637 1-302)
T5 construct: source: E. coli XL1-Blue, purified (TALON resin, lysis in 8 M urea, dialyzed); not shown: His6, N-terminal, kept
T5 sequence (looked up): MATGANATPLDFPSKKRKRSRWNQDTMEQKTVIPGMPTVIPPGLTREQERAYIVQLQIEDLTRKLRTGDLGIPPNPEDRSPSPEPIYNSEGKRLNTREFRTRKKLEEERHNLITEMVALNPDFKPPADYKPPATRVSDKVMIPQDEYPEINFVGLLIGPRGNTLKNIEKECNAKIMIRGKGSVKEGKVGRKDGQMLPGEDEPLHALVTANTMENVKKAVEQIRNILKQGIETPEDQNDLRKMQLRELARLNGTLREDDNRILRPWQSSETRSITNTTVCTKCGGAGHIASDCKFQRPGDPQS

[1] = molecular target: T6, His6-MBP-SF1-C370 Δ306–326 (human, UniProt Q15637 1-370, Δ306–326, replaced by one KpnI site encoding Gly and Thr)
T6 construct: in pETMBP-1a; source: E. coli BL21, purified (TALON resin, lysis in 8 M urea, dialyzed); not shown: His6, N-terminal, kept; MBP, N-terminal, kept
T6 sequence (looked up): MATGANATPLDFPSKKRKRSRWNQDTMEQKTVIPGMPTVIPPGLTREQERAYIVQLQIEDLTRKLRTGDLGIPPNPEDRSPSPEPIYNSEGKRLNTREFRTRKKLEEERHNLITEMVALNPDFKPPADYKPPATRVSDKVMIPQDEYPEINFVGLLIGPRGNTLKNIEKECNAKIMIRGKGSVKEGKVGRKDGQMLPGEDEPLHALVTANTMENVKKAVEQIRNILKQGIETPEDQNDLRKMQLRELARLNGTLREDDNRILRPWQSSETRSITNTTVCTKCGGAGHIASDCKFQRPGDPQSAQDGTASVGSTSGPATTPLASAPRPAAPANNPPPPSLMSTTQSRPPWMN

Measured: binding result

B1: GST-CHERP-SURP (domain or fragment, UniProt Q8IWX8 1-75, looked up)
chain: MEMPLPPDDQELRNVIDKLAQFVARNGPEFEKMTMEKQKDNPKFSFLFGGEFYSYYKCKLALEQQQLICKQQTPE
notes: single SURP domain of CHERP, amino acids 1–75, in pDEST15; also called single SURP domain of CHERP; source: E. coli BL21, purified (glutathione agarose)
binds: His6-SF1-C370 | His6-SF1-C327

B2: GST-U2AF65-UHM (domain or fragment, UniProt P26368 367-475, looked up)
chain: QVQMGGHPTEVLCLMNMVLPEELLDDEEYEEIVEDVRDECSKYGLVKSIEIPRPVDGVEVPGCGKIFVEFTSVFDCQKAMQGLTGRKFANRVVVTKYCDPDSYHRRDFW
notes: U2AF homology motif (UHM) of U2AF65, amino acids 367–475; also called U2AF homology motif of U2AF65; source: E. coli XL1-Blue, purified (glutathione agarose)
binds: all assays above

B3: GST-SF3a120-SURP1 (domain or fragment, UniProt Q15459 38-113, looked up)
chain: PVVGIIYPPPEVRNIVDKTASFVARNGPEFEARIRQNEINNPKFNFLNPNDPYHAYYRHKVSEFKEGKAQEPSAAI
notes: SURP1 of SF3a120, amino acids 38–113, in pDEST15; also called SURP1 of SF3a120; source: E. coli BL21, purified (glutathione agarose)
binds: His6-SF1-C370 | His6-SF1-C327
